Patent US20030036169A1

B1: Mint 2 (protein)
chain: MAHRKRQSTASSMLDHRARPGPIPHDQEPENEDTELPLESYVPTGLELGTLRPDSPTPEEQECHNHSPDGDSSSDYVNNTSEEEDYDEGLPEEEEGVTYYIRYCPEDDSYLEGMDCNGEEYLAHGAHPVDTDECQEAVEDWTDSVGPHTHSHGAENSQEYPDSHLPIPEDDPTVLEVHDQEEDGHYCPSKESYQDYYPPETNGNTGGASPYRMRRGDGDLEEQEEDIDQIVAEIKMSLSMTSITSASEASPEHMPELDPGDSTEACSPSDTGRGPSRQEARPKSLNLPPEVKHSGDPQRGLKTKTRTPEERPKWPQEQVCNGLEQPRKQQRSDLNGPTDNNNIPETKKVASFPSFVAVPGPCEPEDLIDGIIFAANYLGSTQLLSERNPSKNIRMMQAQEAVSRVKRMQKAAKIKKKANSEGDAQTLTEVDLFISTQRIKVLNADTQETMMDHALRTISYIADIGNIVVLMARRRMPRSASQDCIETTPGAQEGKKQYKMICHVFESEDAQLIAQSIGQAFSVAYQEFLRANGINPEDLSQKEYSDIINTQEMYNDDLIHFSNSENCKELQLEKHKGEILGVVVVESGWGSILPTVILANMMNGGPAARSGKLSIGDQIMSINGTSLVGLPLATCQGIIKGLKNQTQVKLNIVSCPPVTTVLIKRPDLKYQLGFSVQNGIICSLMRGGIAERGGVRVGHRIIEINGQSVVATAHEKIVQALSNSVGEIHMKTMPAAMFRLLTGQETPLYI
B2: Mint 3 (protein, rat, UniProt O70248 1-569, looked up)
chain: MEFLPEPQHPPGPPTMDLEEPKGPEVPSEDHPSNTQWALGPRGPDTLSEMELDTSSVRALVQQLEALPSDLGGQFPDGAPCPLHIATGQGLATQENLDAGGLLSAEAGGDNLLGLLRCEASLPAQSVPPDPAQAAPRLLQPPEDPGGDPGWMEGTEPADNRSSSSSPELWLETAPLVTHRDPPVGTQSQETLASCPAVSEVPGPCGQEELMDGVLFGAKYLGSTQLLSERNPPPSTRMGQAQEAMDRVKAPEGETQPMTEVDIFISTKRVKVLAADSQDALMDHALQTISYIADIGPVLVLMARRRLAKRTTSQDRQRQLYKMLCHVFHSEDAQLIAQAIGQAFSIAYSQFLQENRIDPSQVGMQPSASASHPHNGDLDHFCNSQNCREVCIQKRPGEGLGVALVESGWGSLLPTAVIANLLHGGPAERCGALSIGDRVTAINGTSLVGLSLAACQAAVREVRRHSSVTLSIIHCPPVTTAVIHRPHVREQLGFCVENGIICSLLRGSAAERGGVRVGHRIIEVNGQSVVAMPHARIIQLLTETREIHIKTMPAATYRLLTGQEQPVYL
B3: Mint 1 (protein)
chain: MNHLEGSAEVEVADEAPGGEVNESVEADLEHPEVEEEQQPSPPPPAGHAPEDHRAHPAPPPPPPPQEEEEERGECLARSASTESGFHNHTDTAEGDVLAAARDGYEAERAQDADDESAYAVQYRPEAEEYTEQAEAEHAEAAQRRALPNHLHFHSLEHEEAMNAAYSGYVYTHRLFHRAEDEPYAEPYADYGGLQEHVYEEIGDAPELEARDGLRLYERERDEAAAYRQEALGARLHHYDERSDGESDSPEKEAEFAPYPRMDSYEQEEDIDQIVAEVKQSMSSQSLDKAAEDMPEAEQDLERAPTPGGGHPDSPGLPAPAGQQQRVVGTPGGSEVGQRYSKEKRDAISLAIKDIKEAIEEVKTRTIRSPYTPDEPKEPIWVMRQDISPTRDCDDQRPVDGDSPSPGSSSPLGAESSITPLHPGDPTEASTNKESRKSLASFPTYVEVPGPCDPEDLIDGIIFAANYLGSTQLLSDKTPSKNVRMMQAQEAVSRIKTAQKLAKSRKKAPEGESQPMTEVDLFISTQRIKVLNADTQEPMMDHPLRTISYIADIGNIVVLMARRRMPRSNSQENVEASHPSQDAKRQYKMICHVFESEDAQLIAQSIGQAFSVAYQEFLRANGINPEDLSQKEYSDLLNTQDMYNDDLIHFSKSENCKDVFIEKQKGEILGVVIVESGWGSILPTVIIANMMHGGPAEKSGKLNIGDQIMSINGTSLVGLPLSTCQSIIKGLKNQSRVKLNIVRCPPVTTVLIRRPDLRYQLGFSVQNGIICSLMRGGIAERGGVRVGHRIIEINGQSVVATPHEKIVHILSNAVGEIHMKTMPAAMYRLLTAQEQPVYI

target: APP695 (human) (UniProt P05067); test: cell-based or functional assay

Row | Binder | steady-state levels of transfected APP695 in HEK293 cells (quantitative immunoblot) [fold]
1 | B1 | < 3
2 | B2 | < 3
3 | B3 | < 3
